In publication doi:10.1101/2024.06.14.599074, “A higher order PUF complex is central to regulation of C. elegans germline stem cells” (bioRxiv, 2024):
Where a chain is given by its changes, count along the chain named. In names and notes the source's numbering stands. Several values for one entry are separate records, joined by “and”; a condition that tells them apart may be missing. Equal values may be shown once. Values belong to the binder of their own block, whether it stands above or below them.

Assays:
[1] = target: T1, C. elegans FBF-2 RBD+CT (residues 164–632) (C. elegans, UniProt Q09312 164-632); assay: cell-based or functional assay
T1 sequence (looked up): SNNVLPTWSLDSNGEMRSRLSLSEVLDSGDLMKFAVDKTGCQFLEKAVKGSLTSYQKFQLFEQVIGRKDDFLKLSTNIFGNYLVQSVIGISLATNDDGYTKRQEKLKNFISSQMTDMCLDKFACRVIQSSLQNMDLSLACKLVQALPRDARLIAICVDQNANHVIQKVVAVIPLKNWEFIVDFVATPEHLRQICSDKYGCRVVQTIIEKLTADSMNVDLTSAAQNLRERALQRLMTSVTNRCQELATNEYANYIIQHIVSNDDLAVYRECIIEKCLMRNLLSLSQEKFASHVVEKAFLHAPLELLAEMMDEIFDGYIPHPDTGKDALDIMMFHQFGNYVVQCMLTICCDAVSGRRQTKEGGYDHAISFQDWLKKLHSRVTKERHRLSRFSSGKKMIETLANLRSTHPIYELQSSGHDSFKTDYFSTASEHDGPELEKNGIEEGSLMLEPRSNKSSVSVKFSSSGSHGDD

[2] = target: T1, C. elegans FBF-2 RBD+CT (residues …); assay: ITC; LST-1 (100–400 μM) titrated from the syringe into the cell containing FBF-2 (10–30 μM); 20 °C; 20 mM HEPES pH 7.4, 150 mM NaCl, 0.5 mM TCEP; no RNA; one-site model; two technical replicates; conditions: both partners purified
[3] = target: T2, FBF-2 RBD protein (residue 164–575) (C. elegans, UniProt Q09312 164-575); assay: as above; conditions: both partners purified
T2 construct: Tag cleaved with TEV protease (construct derived from an earlier pGEX6p FBF-2 RBD construct); source: E. coli, purified (as FBF-2 RBD+CT); for SEC-MALS and cryo-EM coexpressed with GST-fused LST-1^19-98 and purified as a complex
T2 sequence (looked up): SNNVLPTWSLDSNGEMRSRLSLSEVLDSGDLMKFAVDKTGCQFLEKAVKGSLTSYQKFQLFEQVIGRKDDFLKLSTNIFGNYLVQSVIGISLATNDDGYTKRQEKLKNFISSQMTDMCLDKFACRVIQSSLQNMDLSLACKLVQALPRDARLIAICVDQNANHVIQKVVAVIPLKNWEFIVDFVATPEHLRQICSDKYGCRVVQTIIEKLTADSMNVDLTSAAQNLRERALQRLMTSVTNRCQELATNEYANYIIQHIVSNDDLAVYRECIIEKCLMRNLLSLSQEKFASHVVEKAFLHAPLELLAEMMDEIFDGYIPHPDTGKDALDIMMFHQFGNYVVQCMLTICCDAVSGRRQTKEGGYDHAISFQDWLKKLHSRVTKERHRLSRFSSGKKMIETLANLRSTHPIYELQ

[4] = target: T1, C. elegans FBF-2 RBD+CT (residues …); assay: SEC-MALS; purified FBF-2 RBD+CT or RBD/LST-1^19-98 protein (~30 μM) with 29-nt gld-1 FBEa-FBEa* RNA; Superdex-200 10/300 GL; 20 mM HEPES pH 7.4, 150 mM NaCl, 2 mM DTT; conditions: both partners purified
[5] = target: T2, FBF-2 RBD protein (residue 164–575); assay: as above; conditions: both partners purified
[6] = target: T2, FBF-2 RBD protein (residue 164–575); assay: FRET or BRET; 2 μM unlabeled FBF-2 RBD pre-incubated with Cy5-labeled LST-1^19-98 (20, 40, 80 nM), then 20 nM 5′-Cy3-labeled gld-1 FBEa-FBEa* RNA; room temperature; FRET from Cy3 in the RNA to Cy5 in LST-1; conditions: both partners purified

- EMSA: RNA-binding affinity of FBF-2 RBD+CT for gld-1 FBEa-FBEa* RNA with 10 μM LST-1^19-98 against without LST-1 [1]: 4 fold
- Kd [2]: 1.1 µM and 1.9 µM
- dH [2]: -14.8 kcal/mol and -10.8 kcal/mol
- stoichiometry N [2]: 0.5 sites and 0.57 sites
- Kd [3]: 0.48 µM and 0.52 µM
- dH [3]: -33.2 kcal/mol and -37.5 kcal/mol
- stoichiometry N [3]: 0.46 sites
B1: LST-1^19-98 (LST-1 residues 19–98, spanning PIM-A and PIM-B) (domain or fragment, C. elegans, UniProt P91820 19-98, looked up)
chain: STIAYSKSQHEAPKQLLQLRSEIKPLIPLNQPSNFWESSQDSGVLSSLSSSPQQRSGLRSQKLHLTYIEKNKRVRAMIPQ
notes: LST-1, C. elegans, residues 19–98 of the N-terminal intrinsically disordered region, with PIM-A and PIM-B; Codon-optimized synthetic cDNA in the pSMT3 vector; tag removed with Ulp1; also called LST-1 peptide (residues 19–98); source: E. coli BL21-CodonPlus (DE3)-RIL, purified (Ni-NTA, heparin, Ni-NTA pass, Superdex 75)

- stoichiometry N [4]: 2 FBF-2 per LST-1
- stoichiometry N [5]: 2 FBF-2 per LST-1
B2: LST-1^19-98 from the GST fusion coexpressed with FBF-2 (domain or fragment, C. elegans, UniProt P91820 19-98, looked up)
chain: B1 chain
notes: LST-1, C. elegans, residues 19–98; GST cleaved off with TEV protease; also called GST-LST-1^19-98

- Kd [2]: 3.7 µM and 2.8 µM
- dH [2]: -11.4 kcal/mol and -11.5 kcal/mol
- stoichiometry N [2]: 1.02 sites and 0.98 sites
- Kd [3]: 0.13 µM and 0.12 µM
- dH [3]: -15.3 kcal/mol and -16.5 kcal/mol
- stoichiometry N [3]: 1.15 sites and 1.05 sites
B3: LST-1^19-98(A^m) (domain or fragment, C. elegans, UniProt P91820 19-98, looked up)
chain: B1 chain with K14A, L17A
notes: LST-1, C. elegans, residues 19–98, PIM-A mutated, PIM-B intact; also called LST-1 A^m; K32A/L35A double mutant in PIM-A; source: E. coli, purified (same protocol as for WT protein)

- Kd [2]: 24.1 µM and 46.2 µM
- dH [2]: -11.1 kcal/mol and -11.5 kcal/mol
- stoichiometry N [2]: 1.06 sites and 0.89 sites
- Kd [3]: 1.46 µM and 1.54 µM
- dH [3]: -12.1 kcal/mol and -12.5 kcal/mol
- stoichiometry N [3]: 0.83 sites and 0.86 sites
B4: LST-1^19-98(B^m) (domain or fragment, C. elegans, UniProt P91820 19-98, looked up)
chain: B1 chain with K62A, L65A, Y67A
notes: LST-1, C. elegans, residues 19–98, PIM-B mutated, PIM-A intact; also called LST-1 B^m; K80A/L83A/Y85A triple mutant in PIM-B; source: E. coli, purified (same protocol as for WT protein)

- binding result [6]: binds
B5: C26-labeled LST-1^19-98 (S26C, Cy5) (domain or fragment, C. elegans, UniProt P91820 19-98, looked up)
chain: B1 chain with S8C
modifications: Cy5 on C26 via cysteine-maleimide conjugation
notes: LST-1, C. elegans, residues 19–98, cysteine in place of S26, five residues upstream of PIM-A; Probably made like wild-type LST-1^19-98 (His6-SUMO, cleaved); source: purified

- binding result [6]: binds
B6: C74-labeled LST-1^19-98 (S74C, Cy5) (domain or fragment, C. elegans, UniProt P91820 19-98, looked up)
chain: B1 chain with S56C
modifications: Cy5 on C74 via cysteine-maleimide conjugation
notes: LST-1, C. elegans, residues 19–98, cysteine in place of S74, five residues upstream of PIM-B; Probably made like wild-type LST-1^19-98 (His6-SUMO, cleaved); source: purified
